From publication PMC6182156

Experiments:
Assay in all cases: native gel or EMSA
[1] = target: H2A.Z/H3K9cme3 12N200 nucleosome array (UniProt P0C0S5)
[2] = target: N203 mononucleosome with a stoichiometric amount of linker histone H1.4 (UniProt P10412)
[3] = target: H2A.Z/H3K9cme3 12N200 nucleosome array saturated with H1.4 (UniProt P0C0S5)
[4] = target: 12 x 200 x 601 (12N200) nucleosome array, unmodified histones
[5] = target: symmetric 203 bp mononucleosome (N203), unmodified histones
[6] = target: 147 bp nucleosome core particle (N147), unmodified histones
[7] = target: 12N200 nucleosome array assembled with linker histone H1.4 (UniProt P10412)

With “HP1α (Heterochromatin Protein 1 alpha), wild type (from UniProt P45973 1-191) (natural protein)” the K1/2 [1] was 0.23 µM, the K1/2 [2] was 1.26 µM and the K1/2 [3] was 1.15 µM. For the same substance, the K1/2 [4] was 0.71 µM, the K1/2 [5] was 0.58 µM and the K1/2 [6] was 2.29 µM. It also gave a K1/2 [7] of 2.15 µM.
